# Laboratory results taken from patent publication US20080161234A1, “Composition Comprising Lactic Acid and Lactoferrin” (priority 2004, published 2008).
# B1: LF: LF from human milk purchased from Sigma; single chain iron-binding glycoprotein (protein, UniProt P02788 20-710, looked up)
# Lactotransferrin: GRRRSVQWCAVSQPEATKCFQWQRNMRKVRGPPVSCIKRDSPIQCIQAIAENRADAVTLDGGFIYEAGLAPYKLRPVAAEVYGTERQPRTHYYAVAVVKKGGSFQLNELQGLKSCHTGLRRTAGWNVPIGTLRPFLNWTGPPEPIEAAVARFFSASCVPGADKGQFPNLCRLCAGTGENKCAFSSQEPYFSYSGAFKCLRDGAGDVAFIRESTVFEDLSDEAERDEYELLCPDNTRKPVDKFKDCHLARVPSHAVVARSVNGKEDAIWNLLRQAQEKFGKDKSPKFQLFGSPSGQKDLLFKDSAIGFSRVPPRIDSGLYLGSGYFTAIQNLRKSEEEVAARRARVVWCAVGEQELRKCNQWSGLSEGSVTCSSASTTEDCIALVLKGEADAMSLDGGYVYTAGKCGLVPVLAENYKSQQSSDPDPNCVDRPVEGYLAVAVVRRSDTSLTWNSVKGKKSCHTAVDRTAGWNIPMGLLFNQTGSCKFDEYFSQSCAPGSDPRSNLCALCIGDEQGENKCVPNSNERYYGYTGAFRCLAENAGDVAFVKDVTVLQNTDGNNNEAWAKDLKLADFALLCLDGKRKPVTEARSCHLAMAPNHAVVSRMDKVERLKQVLLHQQAKFGRNGSDCPDKFCLFQSETKNLLFNDNTECLARLHGKTTYEKYLGPQYVAGITNLKKCSTSPLLEACEFLRK
# Assays:
# Assay type in all cases: cell-based
# [1] = test system: P. bivia strains (Pb 57, Pb 62); experiment: Growth inhibition of P. bivia by LF, spectrophotometric, 20 h anaerobic; conditions: LF in various concentrations, no lactate, 0.34% BHI
# Procedure: The bacteria were incubated in 0.34% BHI under anaerobic conditions for 20 hours.
# G. vaginalis and P. bivia were cultured on chocolate-GL-plates for 48 h in anaerobic milieu. The bacteria were harvested and suspended in BHI for further incubation (4 hours at 37° C.). The bacteria were washed twice in Bactopeptone (BP, 0.2%). The concentration was adjusted spectrophotometrically and diluted to 1×10^7 bacteria per ml.
# The procedure for the microbicidal assay with regard to G. vaginalis and P. bivia was as described above except that the microplate was incubated under anaerobic conditions (2 h). Thereafter droplets of the solutions were analyzed for viable bacteria on blood agar plates after 48 h of anaerobic incubation at 37° C.
# The microbicidal assay was modified in order to obtain survival conditions for G. vaginalis and P. bivia. Instead of 0.2% BP 0.34% BHI was used. The bacterial strains were analyzed with only LF added in various concentrations to the wells (no lactate present). The plate was incubated for 20 hours.
# E. coli 06 = experiment: Microbicidal microplate-droplet assay, E. coli; parameters: key to E. coli killing, growth grade in droplet assay: +++ means that the number of colony forming units (CFU) contained within 5 ul of a droplet formed a smooth layer of bacteria; ++ means that a “ruffled” area is seen; 0 means that no CFU were found in triplicate samples of 5 ul (>99.95 killed of the inoculum)
# Procedure: The bacterial strains S. aureus 1800 (CCUG 1800), E. coli 06, and the yeast C. albicans (ATCC 64549) have been used in the microplate assay. All microorganisms were cultured in brain heart infusion medium (BHI) on a shaker over night at 37° C. A volume of the culture was transferred to a new tube with BHI and incubated for two more h on the shaker. The bacteria were harvested in the log phase, washed once and thereafter suspended in the broth used for the microplate assay. The suspension was adjusted spectrophotometrically and diluted to a concentration of approximately 4×10^6 cells per ml at 650 nm. Washed cells were suspended in 0.2% BP (pH 7.0) or BHI medium diluted 1/10 (0.34%, pH 6.7-6.9) (Difco, USA). The concentration of bacterial or fungal cells was spectrophotometrically adjusted. LF or peptide, serially diluted in BHIdil or BP by twofold steps (unless otherwise stated), were added in triplicate to the wells of a microtiterplate (200 ul per well). The bacterial or yeast cell solutions were added in 10 ul volumes to give a final concentration of approximately 2×10^5 cells per ml. The concentration of the stock solution was always checked by viable counts. The microplate was incubated at 37° C. in a humid chamber for 2 h unless otherwise stated. Five ul were taken from each well and added as a drop onto a blood agar plate and incubated over night at 37° C. In some experiments more thorough viable counts were performed and the killing was expressed as remaining colony forming units in relation to the inoculum. The lower limit for detection of microorganisms was 200 CFU/ml. The antimicrobial activity of human LF was analysed by the microbicidal assay described above. Different microbes such as C. albicans, E. coli and S. aureus were analysed with respect to their survival in lactate (not containing the inert gel base, which makes the gel unsuitable for the microbicidal assay) containing LF.
# L. gasseri = experiment: Survival of L. gasseri in lactate with LF; conditions: LF 2 mg/ml, lactate 1%, 0.34% BHI, CO2, 3 h
# Procedure: L. gasseri and L. jensenii were cultured on chocolate-agar plates for 24 h in 5% CO2/95% air. They were thereafter harvested and added to BHI (0.34%). After washing the bacterial solutions were adjusted spectrophotometrically and diluted to 8×10^6 bacteria/ml.
# Washed cells were suspended in 0.2% BP (pH 7.0) or BHI medium diluted 1/10 (0.34%, pH 6.7-6.9) (Difco, USA). The concentration of bacterial or fungal cells was spectrophotometrically adjusted. LF or peptide, serially diluted in BHIdil or BP by twofold steps (unless otherwise stated), were added in triplicate to the wells of a microtiterplate (200 ul per well). The bacterial or yeast cell solutions were added in 10 ul volumes to give a final concentration of approximately 2×10^5 cells per ml. The concentration of the stock solution was always checked by viable counts. The microplate was incubated at 37° C. in a humid chamber for 2 h unless otherwise stated. Five ul were taken from each well and added as a drop onto a blood agar plate and incubated over night at 37° C. In some experiments more thorough viable counts were performed and the killing was expressed as remaining colony forming units in relation to the inoculum. The lower limit for detection of microorganisms was 200 CFU/ml.
# L. gasseri survived better in the assay system than did L. jensenii. Undiluted lactate (5%) affected the survival of Lactobacillus.
molecule,measurement,setting,value
B1,growth inhibition of P. bivia,[1],Growth inhibition
same,"E. coli killing, growth grade in droplet assay","E. coli 06; HLF 500 ug/ml, lactate 0.2%, 2 h incubation",++
same,"E. coli killing, percentage of bacteria remaining in relation to the inoculum","E. coli 06; HLF 500 ug/ml, lactate 0.2%, 5 h incubation",4%
same,"E. coli killing, growth grade in droplet assay","E. coli 06; HLF 500 ug/ml, lactate 1%, 2 h incubation",++
same,"E. coli killing, percentage of bacteria remaining in relation to the inoculum","E. coli 06; HLF 500 ug/ml, lactate 1%, 5 h incubation",5%
same,"E. coli killing, percentage of bacteria remaining in relation to the inoculum","E. coli 06; HLF 500 ug/ml, lactate 5%, 2 h incubation",0 (0 means that no CFU were found in triplicate samples of 5 ul (>99.95 killed of the inoculum))
same,"E. coli killing, percentage of bacteria remaining in relation to the inoculum","E. coli 06; HLF 500 ug/ml, lactate 5%, 5 h incubation",0 (0 means that no CFU were found in triplicate samples of 5 ul (>99.95 killed of the inoculum))
same,"E. coli killing, growth grade in droplet assay","E. coli 06; HLF 500 ug/ml, no lactal, 2 h incubation",+++
same,"E. coli killing, growth grade in droplet assay","E. coli 06; HLF 500 ug/ml, no lactal, 5 h incubation",+++
same,"E. coli killing, percentage of bacteria remaining in relation to the inoculum","E. coli 06; HLF 2000 ug/ml, lactate 0.2%, 5 h incubation",5%
same,"E. coli killing, percentage of bacteria remaining in relation to the inoculum","E. coli 06; HLF 2000 ug/ml, lactate 1%, 5 h incubation",9%
same,"E. coli killing, percentage of bacteria remaining in relation to the inoculum","E. coli 06; HLF 2000 ug/ml, lactate 5%, 2 h incubation",0 (0 means that no CFU were found in triplicate samples of 5 ul (>99.95 killed of the inoculum))
same,"E. coli killing, percentage of bacteria remaining in relation to the inoculum","E. coli 06; HLF 2000 ug/ml, lactate 5%, 5 h incubation",0 (0 means that no CFU were found in triplicate samples of 5 ul (>99.95 killed of the inoculum))
same,"E. coli killing, growth grade in droplet assay","E. coli 06; HLF 2000 ug/ml, no lactal, 2 h incubation",++
same,"E. coli killing, percentage of bacteria remaining in relation to the inoculum","E. coli 06; HLF 2000 ug/ml, no lactal, 5 h incubation",3%
same,"E. coli killing, growth grade in droplet assay","E. coli 06; HLF 5000 ug/ml, lactate 0.2%, 2 h incubation",++
same,"E. coli killing, percentage of bacteria remaining in relation to the inoculum","E. coli 06; HLF 5000 ug/ml, lactate 0.2%, 5 h incubation",0.4%
same,"E. coli killing, percentage of bacteria remaining in relation to the inoculum","E. coli 06; HLF 5000 ug/ml, lactate 1%, 5 h incubation",16%
same,"E. coli killing, percentage of bacteria remaining in relation to the inoculum","E. coli 06; HLF 5000 ug/ml, lactate 5%, 2 h incubation",0 (0 means that no CFU were found in triplicate samples of 5 ul (>99.95 killed of the inoculum))
same,"E. coli killing, percentage of bacteria remaining in relation to the inoculum","E. coli 06; HLF 5000 ug/ml, lactate 5%, 5 h incubation",0 (0 means that no CFU were found in triplicate samples of 5 ul (>99.95 killed of the inoculum))
same,"E. coli killing, growth grade in droplet assay","E. coli 06; HLF 5000 ug/ml, no lactal, 2 h incubation",++
same,"E. coli killing, percentage of bacteria remaining in relation to the inoculum","E. coli 06; HLF 5000 ug/ml, no lactal, 5 h incubation",2%
same,survival of L. gasseri,L. gasseri,18%
